The values below come from patent US20100292303A1, “GENE EXPRESSION PROFILE FOR PREDICTING OVARIAN CANCER PATIENT SURVIVAL” (priority 2007, published 2010).

The test system of data set [1] is ovarian cancer cells SKOV3. Nature of the data set: SKOV3 ovarian tumor growth and microvessel density in nude mice. It counts as in vivo. As to the method: The MAGP2 siRNA molecule had the following sequence: 5′-[…]-3′ (sense; SEQ ID NO: 1) and 5′-[…]-3′ (antisense; SEQ ID NO: 2). Five stable clones were selected for each group. A total of 5×10^5 cells from each clone were injected subcutaneously into the posterior neck region of 5 nude mice (6 to 8 week-old female nude mice, Charles River, Mass.). After 4 weeks, the mice were sacrificed and the tumors developed from each mouse were removed and weighed. They samples were subsequently fixed in formalin and processed for histological evaluation. MAGP2 expression in tumor tissues was evaluated using a rabbit anti-human MAGP2 antibody and the microvessel density was determined by immunolocalization of CD34+ blood vessels using a goat anti-mouse polyclonal antibody (FIG. 8A). Significant difference in the weight of the tumors between the MAGP2 siRNA and the control group were found as determined by Mann-Witney U test (FIG. 8B). A p value <0.05 was considered as significant.

The test system of data set [2] is HUVE cells. Nature of the data set: Ca2+ oscillation in HUVE cells (fluo-4/AM, confocal microscope). It counts as cell-based, human. As for the experimental part: To identify the mechanism underlying the stimulation of FAK by recMAGP2, Ca^2+ oscillation was assessed in treated HUVE cells. […] This may account in part for the enhanced motility and survival of HUVE cells as described in the pathway analysis.

The subject of data set [3] is UCI107 cells. Nature of the data set: UCI107 ovarian cancer cell adhesion on recMAGP2. It counts as cell-based. The settings on record: UCI107 negative for αvβ3 receptor and MAGP2. The text has this: (§1) Cell Lines and Culture Conditions. A224, UCI107 and OVCA429 ovarian cancer cell lines were maintained in RPMI (Invitrogen Life Technologies Inc, Carlsbad, Calif.) supplemented with 10% fetal bovine serum (Gemini Bio-Products, Woodland, Calif.) and 1% L-glutamine (Invitrogen Life Technologies).
(§2) Screening a serous ovarian cancer cell line panel for MAGP2 expression by qRT-PCR (FIG. 4A) and western blot, as well as αvβ3 receptor status through FACs analysis (FIG. 4B, select cell lines only), facilitated the selection of cell lines amenable for downstream examination. Quantitative RT-PCR was performed as described in Example 1. Among cell lines expressing MAGP2, only the SKOV3 cell line co-expressed the αvβ3 receptor. Two cell lines, A224 and OVCA429, were positive for αvβ3, yet lacked measurable levels of MAGP2. These cell lines were chosen for subsequent analyses involving the recombinant protein along with UCI107, which was negative for both the receptor and MAGP2.
(§3) The effect of recMAGP2 on adhesion was evaluated for A224 and UCI107 cell lines.

In data set [4] the test system is HUVE cells. Nature of the data set: HUVE cell survival under low serum (MTT assay). It counts as cell-based, human. The following applies: 5 days, P<0.005. As to the method: (§4) HUVE cell invasion was measured by adding cells (5×10^4) to the top chamber of a BD Falcon HTS FluoroBlok insert with a PET membrane coated with a thin layer of Matrigel. To evaluate the effect of MAGP2 on HUVE cell proliferation, 1,000 HUVECs/well were plated in 8 wells of a 96-well plate in EBM2 with 2.0% FBS. The next day the media were removed and replaced with 0.2% FBS media with elute buffer control or with recombinant MAGP2 protein at 4.5 ng/ml. After 2 days, elute control or MAGP2 was added a second time. Cell number was quantified via MTT assay.
In addition to motility and invasion, HUVE cell survival under low serum conditions was prolonged by recMAGP2.

Data set [5] relates to FAK. Nature of the data set: FAK phosphorylation (tyrosine 407) western blot in HUVE cells. It is filed as cell-based, human. The settings on record: 100 ng/ml, 30 minutes. As for the experimental part: Western Blot Analysis. To assess FAK phosphorylation in HUVE cells, cells were plated on 60 mm^2 dishes treated with 100 ng/ml MAGP2 recombinant protein or elute buffer control. After 30 minutes the cells were washed with 4° C. PBS and lysed in RIPA buffer containing 0.1% SDS and proteinase inhibitors. Western blotting was then performed with 5 μg of protein under denaturing conditions on a 4-12% NuPAGE gel and transferred to a PVDF membrane. The membrane was blocked in 5% nonfat milk for 1 hr at RT, probed with a 1:1000 dilution of anti-FAK[pY^407] rabbit polyclonal 1° antibody (Biosource) for 2 hr at RT. The blot was washed 3 times for 5 min with TBST and probed with a 1:2000 dilution of goat anti-rabbit HRP conjugated 2° antibody (Amersham) for 1 hr at RT. The blot was washed 3 times for 10 min with TBST and bands were detected via chemiluminscence using an ECL kit (Amersham).
Since FAK is a mediator of αvβ3 signaling, the phosphorylation status of FAK in recMAGP2 treated cells was confirmed. Using a phosphorylation specific antibody recognizing tyrosine 407, a western blot comparing phospho-FAK to total FAK was completed for both treated and untreated HUVE cell isolates.
(Immunoblotting shows a protein as a band on a membrane.)

In data set [6] the test system is OVCA429 cells. Nature of the data set: OVCA429 cell survival under increasing concentrations of recMAGP2. It is filed as cell-based. The settings on record: 200 ng/ml recMAGP2, 96 hours; P<0.01.
Excerpt: as §1
Based on the pathway analysis, αvβ3 mediated signaling was implicated in ovarian tumor cell survival through the stimulation of critical cell-cycle checkpoint regulators. To assess this observation, OVCA429 cells were cultured under increasing concentrations of purified recMAGP2 and harvested at 24-hour intervals.

Data set [7] concerns HUVE cells. Nature of the data set: HUVE cell invasion through Matrigel. The following applies: cells seeded onto Matrigel matrix; P<0.05. It is filed as cell-based, human. As for the experimental part:
as §4
(§5) To determine the effect of recMAGP2 on the HUVE cell motility, recMAGP2 was used as a chemoattractant. […] Similarly, exposing HUVE cells seeded onto Matrigel matrix to reMAGP2 stimulated a 2-fold increase in invasion (P<0.05) (FIG. 5D).

Data set [8] relates to HUVE cells. Nature of the data set: HUVE cell motility assay (FluoroBlok insert, recMAGP2 as chemoattractant). It counts as cell-based, human. The settings on record: 2.5 hours, compared to medium alone, P<0.05. As for the experimental part: Cell motility was evaluated for HUVE cells (5×10^4) by adding them to the top chamber of a BD Falcon HTS FluoroBlok insert with a PET membrane with eight […] pore (BD Biosciences) in […] of medium with 0.2% FBS. The inserts were placed into the bottom chamber wells of a 24-well plate containing medium with increasing concentrations of recombinant MAGP2. After 2.5 hr, cells that migrated through the pores of the membrane to the bottom chamber were stained with calcein […] (Molecular Probes, Eugene, Oreg.) in PBS for 30 min at 37° C. The fluorescence of migrated cells was quantified using a fluorometer set at 485 nm excitation and 530 nm emission. Parallel control experiments were performed using the MAGP2 elution buffer. HUVECs motility was mediated through αvβ3 integrin, cells were pre-treated either with an anti-αvβ3 integrin antibody (Santa Cruz Laboratories #sc-7312) or with an equal amount of IgG (ICL #RS-90G1) for 30 minutes before the addition of 100 ng/ml MAGP2. The motility assay was then performed as described above.
as §5

The test system of data set [9] is A224 cells. Kind of data set: A224 ovarian cancer cell adhesion on recMAGP2 coated wells. The settings on record: plated on recMAGP2 coated wells, relative to control wells; P<0.0005. It counts as cell-based.
Excerpt: as §1, §2, §3

The test system of data set [10] is HUVE cells. Kind of data set: Affymetrix U133 Plus 2.0 microarray of recMAGP2 treated HUVE cells. It counts as cell-based, human. The following applies: P<0.01 and fold-change ≧1.5; treated n=3 vs untreated n=3. The text has this: The marked effect of recMAGP2 on HUVE cell behavior indicated a change in cellular regulation had taken place possibly affecting gene expression. To explore the consequences of recMAGP2 induced signaling, Affymetrix® U133 Plus 2.0 microarrays were completed for a series of recMAGP2 treated (n=3) and untreated (n=3) HUVE cell isolates. A total of 274 probe sets were identified for pathway analysis in cells exposed to recMAGP2 (P<0.01 and fold-change ≧1.5) (FIG. 6A). […] Deregulation of these genes may lead to a reduction in vessel integrity permitting endothelial cell migration and neovascularization.

Data set [11] addresses αvβ3 integrin receptor (human, UniProt P06756 31-1048; P05106 27-788). Kind of data set: cell-based or functional assay.

αvβ3 integrin receptor, sequence (P06756 31-1048, chain 1 of 2): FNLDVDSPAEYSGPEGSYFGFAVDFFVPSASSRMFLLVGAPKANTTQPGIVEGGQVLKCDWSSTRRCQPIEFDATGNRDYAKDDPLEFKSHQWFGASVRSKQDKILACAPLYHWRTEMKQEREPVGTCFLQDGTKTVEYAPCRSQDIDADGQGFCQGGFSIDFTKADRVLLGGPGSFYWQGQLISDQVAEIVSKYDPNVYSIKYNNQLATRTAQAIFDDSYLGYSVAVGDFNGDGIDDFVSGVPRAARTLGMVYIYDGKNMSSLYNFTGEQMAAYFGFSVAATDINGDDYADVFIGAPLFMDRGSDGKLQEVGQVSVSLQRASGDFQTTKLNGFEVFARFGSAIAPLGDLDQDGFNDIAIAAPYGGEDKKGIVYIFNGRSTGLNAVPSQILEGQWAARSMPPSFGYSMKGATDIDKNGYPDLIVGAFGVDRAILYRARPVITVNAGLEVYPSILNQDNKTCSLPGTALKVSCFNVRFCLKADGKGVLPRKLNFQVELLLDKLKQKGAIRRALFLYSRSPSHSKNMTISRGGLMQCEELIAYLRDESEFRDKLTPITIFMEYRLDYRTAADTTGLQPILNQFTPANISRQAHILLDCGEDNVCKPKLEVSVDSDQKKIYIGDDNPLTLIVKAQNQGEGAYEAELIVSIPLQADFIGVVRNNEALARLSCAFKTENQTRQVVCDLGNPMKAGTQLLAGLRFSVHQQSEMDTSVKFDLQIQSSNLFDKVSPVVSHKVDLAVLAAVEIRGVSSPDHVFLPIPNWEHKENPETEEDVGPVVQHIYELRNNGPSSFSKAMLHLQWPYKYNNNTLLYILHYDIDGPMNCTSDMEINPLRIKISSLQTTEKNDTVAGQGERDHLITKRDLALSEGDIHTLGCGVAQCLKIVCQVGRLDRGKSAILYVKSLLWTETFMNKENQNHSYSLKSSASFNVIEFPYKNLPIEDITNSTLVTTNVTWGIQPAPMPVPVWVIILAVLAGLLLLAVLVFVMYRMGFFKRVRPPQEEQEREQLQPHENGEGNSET
αvβ3 integrin receptor, sequence (P05106 27-788, chain 2 of 2): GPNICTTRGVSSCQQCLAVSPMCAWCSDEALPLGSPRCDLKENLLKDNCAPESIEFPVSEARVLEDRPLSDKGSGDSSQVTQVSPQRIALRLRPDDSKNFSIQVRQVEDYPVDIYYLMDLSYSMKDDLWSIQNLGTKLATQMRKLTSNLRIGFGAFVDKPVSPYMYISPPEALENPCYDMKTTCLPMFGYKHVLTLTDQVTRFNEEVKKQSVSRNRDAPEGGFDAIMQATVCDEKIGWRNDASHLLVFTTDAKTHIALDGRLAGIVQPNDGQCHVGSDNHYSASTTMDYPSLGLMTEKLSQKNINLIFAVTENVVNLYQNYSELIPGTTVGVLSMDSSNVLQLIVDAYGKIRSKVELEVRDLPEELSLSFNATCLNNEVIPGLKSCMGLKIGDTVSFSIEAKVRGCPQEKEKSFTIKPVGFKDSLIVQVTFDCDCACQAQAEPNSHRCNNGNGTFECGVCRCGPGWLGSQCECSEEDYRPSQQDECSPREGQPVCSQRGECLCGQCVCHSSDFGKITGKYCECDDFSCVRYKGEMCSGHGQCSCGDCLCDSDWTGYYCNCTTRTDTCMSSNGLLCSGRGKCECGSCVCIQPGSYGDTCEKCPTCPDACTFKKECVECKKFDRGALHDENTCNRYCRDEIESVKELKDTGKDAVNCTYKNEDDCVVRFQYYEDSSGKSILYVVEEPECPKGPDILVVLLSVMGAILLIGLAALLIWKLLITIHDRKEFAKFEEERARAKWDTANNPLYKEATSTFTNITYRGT

With “MAGP2 siRNA: siRNA 5′-ACCGGTTAAACAATGCATTCAT-3′ (sense; SEQ ID NO: 1) and 5′-ATGAATGCATTGTTTAACCGGC-3′ (antisense; SEQ ID NO: 2) (listed as DNA, chemistry not fully specified)”, the “weight of the tumors” value in data set [1] (SKOV3 stably transfected, subcutaneous, nude mice, 4 weeks, vs empty vector, Mann-Witney U test p<0.05) is “significantly decrease the weight”. Moreover, in data set [1] (immunolocalization of CD34+ blood vessels, FIG. 8A), the “CD34 (microvessel density) in tumor tissues” value is reported as “decreased”. In addition, in data set [1] (immunostaining, FIG. 8A), the “MAGP2 expression in tumor tissues” value is listed as “decreased MAGP2 expression”.

B1: purified recombinant MAGP2 (microfibril associated glycoprotein 2) (ligand, UniProt Q13361 22-173, looked up)
chain: IPLGVNSQRGDDVTQATPETFTEDPNLVNDPATDETVLAVLADIAPSTDDLASLSEKNTTAECWDEKFTCTRLYSVHRPVKQCIHQLCFTSLRRMYIVNKEICSRLVCKEHEAMKDELCRQMAGLPPRRLRRSNYFRLPPCENVDLQRPNGL
Turning to B1, the “[Ca2+]I levels” value in data set [2] (HUVE cells loaded with fluo-4/AM) is “immediate increase”. The “[Ca2+]I oscillation frequency” value in data set [2] (individual HUVE cells) amounted to 100 s/cycle. In data set [3], the UCI107 cell adhesion entry is on record as “only a modest increase in adhesion at high concentrations”. The “HUVE cell survival under low serum conditions” value in data set [4] is “prolonged”. For the same molecule, in [5], the “phosphorylated FAK (tyrosine 407) versus total FAK” value is on record as “increase in phosphorylated FAK”. Besides, the OVCA429 cell survival result in data set [6] is on record as “significant difference in survival”. The “increase in HUVE cell invasion” value in data set [7] was 2 fold. Further, the HUVE cell motility entry in data set [8] was “increased the motility of the cells in a dose dependent manner”. Moreover, in data set [9], the A224 cell adhesion result is recorded as “increase in adhesion”. Also, the “probe sets identified in cells exposed to recMAGP2” value in [10] is listed as 274. In [11], the “adhesion of HUVE cells plated on recMAGP2” value came to 2.5 fold.
